EP4499701A1 (dated 2025)

Molecular target: T1, human FGFR2b expressed on cells (human, UniProt P21802-3 22-822)
T1 construct: whole, on cells; Used for the CHOK1 transfectants (FACS), the Ba/F3 cells with full-length human FGFR2b (ADCC) and the receptor on SNU-16 cells (signalling, proliferation); also called hFGFR2b-expressing CHOK1 cells; CHOK1-FGFR2IIIb transfectants
Experiment: flow cytometry on CHOK1 cells expressing hFGFR2b

T1 sequence (P21802 other isoform, or with tags, fused parts or gaps): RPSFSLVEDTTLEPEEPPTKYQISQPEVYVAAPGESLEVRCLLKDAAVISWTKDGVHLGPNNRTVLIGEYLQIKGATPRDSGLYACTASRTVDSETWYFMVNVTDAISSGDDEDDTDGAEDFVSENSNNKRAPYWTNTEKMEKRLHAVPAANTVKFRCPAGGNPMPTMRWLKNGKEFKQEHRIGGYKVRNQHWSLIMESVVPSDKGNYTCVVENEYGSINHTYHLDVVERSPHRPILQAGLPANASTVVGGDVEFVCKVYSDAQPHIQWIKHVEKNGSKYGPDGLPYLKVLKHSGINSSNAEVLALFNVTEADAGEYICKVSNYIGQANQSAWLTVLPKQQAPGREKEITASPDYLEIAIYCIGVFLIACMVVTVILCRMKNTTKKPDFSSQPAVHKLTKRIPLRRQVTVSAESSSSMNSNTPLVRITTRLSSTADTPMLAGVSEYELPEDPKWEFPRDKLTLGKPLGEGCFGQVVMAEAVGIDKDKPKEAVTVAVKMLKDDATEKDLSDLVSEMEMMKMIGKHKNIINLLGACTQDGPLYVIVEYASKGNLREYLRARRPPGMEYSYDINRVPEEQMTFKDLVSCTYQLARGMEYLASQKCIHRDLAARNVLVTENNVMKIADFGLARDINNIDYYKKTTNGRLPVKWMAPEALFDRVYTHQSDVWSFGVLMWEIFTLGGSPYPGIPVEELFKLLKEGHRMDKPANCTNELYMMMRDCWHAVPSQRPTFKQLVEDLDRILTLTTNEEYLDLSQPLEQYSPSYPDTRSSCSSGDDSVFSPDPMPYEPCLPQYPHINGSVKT

- binding result: binds
B1: HC18 (antibody, human IgG1, kappa, V domains shown)
VH: EVQLQQSGTVLARPGASVKMSCKTSGYTFTSYWMHWVKQRPGQGLEWIGSIYPENSDTSYNQKFKGKAKLTAVTSASTAYMDLSSLTNEDSAVYYCSIYHGYDGDYWGQGTTLTVSS
VL: QIVLTQSPAIMSASPGEKVTITCSASSSVSYMYWFQQKPGTSPKLWIYSTSNLASGVPARFSGSGSGTSYSLTISRMEAEDAATYYCQQRSSYPYTFGGGTKLEIKR
notes: also called mAb HC18; the antibody of the present disclosure
